According to paper PMC12095075:

Target: HIF2A N-terminal region (bHLH-PAS);BMAL1 N-terminal region (bHLH-PAS) (mouse;mouse) (UniProt P97481+Q9WTL8)
Experiment: SPR
Settings: 1:1 fit, error is fit error, SPR: 20 mM MES pH 5.5, 300 mM NaCl, 0.05% Tween-20, 0.02% BSA, EMSA: 10 mM MES pH 6.0, 50 mM KCl, 1 mM DTT, 2.5% glycerol, 0.05% NP-40, 5 mM MgCl2, room …

Chain of HIF2A N-terminal region (bHLH-PAS);BMAL1 N-terminal region (bHLH-PAS) (mouse;mouse) (P97481 3-361, chain 1 of 2): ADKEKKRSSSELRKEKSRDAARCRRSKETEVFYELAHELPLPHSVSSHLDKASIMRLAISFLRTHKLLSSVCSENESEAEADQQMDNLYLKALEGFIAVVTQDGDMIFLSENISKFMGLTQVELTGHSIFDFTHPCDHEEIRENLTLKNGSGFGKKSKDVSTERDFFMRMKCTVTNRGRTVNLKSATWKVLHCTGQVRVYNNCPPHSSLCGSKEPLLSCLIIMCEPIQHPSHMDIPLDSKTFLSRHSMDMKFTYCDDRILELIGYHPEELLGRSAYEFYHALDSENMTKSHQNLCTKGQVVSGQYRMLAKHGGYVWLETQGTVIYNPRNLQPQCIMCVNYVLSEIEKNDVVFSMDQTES
Chain of HIF2A N-terminal region (bHLH-PAS);BMAL1 N-terminal region (bHLH-PAS) (mouse;mouse) (Q9WTL8 68-488, chain 2 of 2): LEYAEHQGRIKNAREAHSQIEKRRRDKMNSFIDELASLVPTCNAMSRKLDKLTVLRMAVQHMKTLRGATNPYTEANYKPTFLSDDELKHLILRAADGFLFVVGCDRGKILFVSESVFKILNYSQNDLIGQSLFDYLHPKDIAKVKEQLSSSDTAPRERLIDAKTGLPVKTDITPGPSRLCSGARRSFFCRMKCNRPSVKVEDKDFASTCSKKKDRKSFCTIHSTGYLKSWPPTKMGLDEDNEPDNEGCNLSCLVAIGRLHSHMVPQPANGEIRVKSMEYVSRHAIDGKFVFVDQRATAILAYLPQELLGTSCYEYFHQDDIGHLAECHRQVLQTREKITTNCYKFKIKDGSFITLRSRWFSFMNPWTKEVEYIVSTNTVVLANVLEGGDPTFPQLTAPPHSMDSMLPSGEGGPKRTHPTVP

Which Kd (ka 2.10e5 1/(M*s), kd 7.85e-4 1/s) does the source give for 22-bp E-box duplex, SPR here?
Its Kd is 3.74 nM.

How did the Kd (ka 1.75e5 1/(M*s), kd 8.45e-4 1/s) turn out when 22-bp HRE duplex, SPR was run?
Its Kd is 4.84 nM.
